Experimental data from paper PMC3388541.

Experiments:
Details in all cases: remark: other sources report otherwise
[1] = molecular target: T1, ScHSP26 (Saccharomyces cerevisiae), P15992; test: native MS
T1 chain: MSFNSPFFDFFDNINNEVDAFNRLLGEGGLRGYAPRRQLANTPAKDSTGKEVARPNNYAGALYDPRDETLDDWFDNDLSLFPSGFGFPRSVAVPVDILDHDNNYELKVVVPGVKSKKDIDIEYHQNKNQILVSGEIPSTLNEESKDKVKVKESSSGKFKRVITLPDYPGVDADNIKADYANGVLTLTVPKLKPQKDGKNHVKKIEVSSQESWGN

[2] = molecular target: T1, ScHSP26 (Saccharomyces cerevisiae), …; test: SEC-MALS
[3] = molecular target: T1, ScHSP26 (Saccharomyces cerevisiae), …; test: native MS
[4] = molecular target: T1, ScHSP26 (Saccharomyces cerevisiae), …; test: native MS
[5] = molecular target: T1, ScHSP26 (Saccharomyces cerevisiae), …; test: native MS
[6] = molecular target: T1, ScHSP26 (Saccharomyces cerevisiae), …; test: native MS
[7] = molecular target: T1, ScHSP26 (Saccharomyces cerevisiae), …; test: native MS
[8] = molecular target: T1, ScHSP26 (Saccharomyces cerevisiae), …; test: native MS

stoichiometry N [1]: 2 subunits
stoichiometry N [2]: 34 subunits
stoichiometry N [3]: 2 subunits
stoichiometry N [4]: 40 subunits
stoichiometry N [5]: 24 to 42 subunits
stoichiometry N [6]: 32 to 42 subunits
stoichiometry N [7]: 40 subunits
stoichiometry N [8]: 2 subunits
B1: ScHSP26, P15992 1-214 (natural protein)
chain: MSFNSPFFDFFDNINNEVDAFNRLLGEGGLRGYAPRRQLANTPAKDSTGKEVARPNNYAGALYDPRDETLDDWFDNDLSLFPSGFGFPRSVAVPVDILDHDNNYELKVVVPGVKSKKDIDIEYHQNKNQILVSGEIPSTLNEESKDKVKVKESSSGKFKRVITLPDYPGVDADNIKADYANGVLTLTVPKLKPQKDGKNHVKKIEVSSQESWGN
